From PMC3596498

Target: SciP (Caulobacter crescentus)

half-life of purified SciP (0.5 µM) degraded by purified Lon (0.5 µM) in vitro: 12 min
B1: C. crescentus Lon (enzyme)
chain: MSELRTLPVLPLRDIVVFPHMVVPLFVGRDKSVRALEEVMRGDKQILLVTQKNSADDDPAPGDIFEVGVLATVLQLLKLPDGTVKVLVEGKARAAVVSFTDQESYYEAQIGEVSEDDGAGPEAEALSRAVVEQFENYVKLNKKVPPEALASIPQIAEPGKLADSIAAHLSVKIGDKQNLLEIFDVVKRLEKVFALMEGEISVLQVEKKIRSRVKRQMEKTQREYYLNEQMKAIQRELGDPDDARDELIDLEKRIKKTKLSKEARTKAESELKKLRNMSPMSAESTVVRNYLDWLLSIPWGKAKTKKIDLVESEGILDADHYGLEKVKERILEYLAVQARTNSLKGPILCLVGPPGVGKTSLGKSIAKATGREFVRMSLGGVRDEAEIRGHRRTYIGSMPGKVVQSMKKAKTTNAFVLLDEIDKMGSDYRGDPASALLEVLDPSQNSTFGDHYLEVDYDLSQVMFVTTANSLNMPQPLLDRMEIIRIPGYTEDEKLEIAKRHILPKLAKDHGLKPAEFIVPDKAIRDLIRYYTREAGVRSLERELGALARKTVRDLAREKVASITIDDERLAKYAGVKKYRYGETDEVDQVGIVTGLAWTEFGGDILTIEAVKMPGKGRMQITGNLKDVMKESIAAANSYVRSRALQFGIKPPVFEKTDVHIHVPDGATPKDGPSAGIAMALAMVSVLTGIPIRKDIAMTGEITLRGRVTAIGGLKEKLLAALRSGVKTVLIPQENEKDLADVPQTVKDGLEIIPVSTVDEVLKHALTGPLTPVEWNEAEEPITTSAKKDDGDSDAMLTH
